Assay results as given in the supplement of paper PMC9112550, “Optimization of the antimicrobial peptide Bac7 by deep mutational scanning” (BMC Biology, 2022).

Test system: Escherichia coli TOP10
Assay: shrunken log2 fold change of peptide-encoding DNA abundance (4.5 h post-induction vs induction); higher = less antimicrobial activity (less host growth inhibition)
Details: time post-induction: 4.5 h; library: site-saturation at positions 5, 18, 19, 20
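Also: peptides expressed intracellularly from a pBAD plasmid library in pooled LB shake-flask culture, induced with 0.3% L-arabinose, DNA abundance read by NGS, three biological replicates, DESeq2 with apeglm shrinkage.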

With RRIRVRPPRLPRPRPRPEWDPRP the “shrunken log2 fold change” value was 0.454.
RRIRNRPPRLPRPRPRPGANPRP was tested, and the “shrunken log2 fold change” value was -0.151.
For RRIRPRPPRLPRPRPRPISYPRP, the “shrunken log2 fold change” value was -0.163.
With RRIRPRPPRLPRPRPRPQYEPRP the “shrunken log2 fold change” value was -0.583.
RRIRLRPPRLPRPRPRPINRPRP was tested, and the “shrunken log2 fold change” value was 0.0141.
RRIRCRPPRLPRPRPRPIPHPRP was tested, and the “shrunken log2 fold change” value was -0.744.
With RRIRPRPPRLPRPRPRPKCKPRP the “shrunken log2 fold change” value was -0.207.
For RRIRTRPPRLPRPRPRPGNEPRP, the “shrunken log2 fold change” value was -0.000989.
With RRIRMRPPRLPRPRPRPGAAPRP the “shrunken log2 fold change” value was 2.24.
RRIRQRPPRLPRPRPRPAAEPRP was tested, and the “shrunken log2 fold change” value was 0.19.
With RRIRLRPPRLPRPRPRPRPDPRP the “shrunken log2 fold change” value was 0.177.
RRIRERPPRLPRPRPRPGQPPRP was tested, and the “shrunken log2 fold change” value was 0.0236.
For RRIRERPPRLPRPRPRPKIIPRP, the “shrunken log2 fold change” value was 0.357.
With RRIRCRPPRLPRPRPRPHVVPRP the “shrunken log2 fold change” value was -0.137.
In the case of RRIRNRPPRLPRPRPRPMIHPRP, the “shrunken log2 fold change” value is reported as -0.136.
RRIRHRPPRLPRPRPRPSYAPRP was tested, and the “shrunken log2 fold change” value was -0.21.
With RRIRCRPPRLPRPRPRPVLEPRP the “shrunken log2 fold change” value was -0.249.
With RRIRERPPRLPRPRPRPKEFPRP the “shrunken log2 fold change” value was -0.11.
In the case of RRIRQRPPRLPRPRPRPPNFPRP, the “shrunken log2 fold change” value is reported as -0.0994.
For RRIRQRPPRLPRPRPRPAEKPRP, the “shrunken log2 fold change” value was -0.00963.
RRIRARPPRLPRPRPRPRMWPRP was tested, and the “shrunken log2 fold change” value was 0.164.
For RRIRKRPPRLPRPRPRPKLLPRP, the “shrunken log2 fold change” value was -0.158.
With RRIRQRPPRLPRPRPRPQTQPRP the “shrunken log2 fold change” value was 0.025.
With RRIRGRPPRLPRPRPRPKCLPRP the “shrunken log2 fold change” value was -0.0243.
For RRIRVRPPRLPRPRPRPHWRPRP, the “shrunken log2 fold change” value was 0.306.
In the case of RRIRRRPPRLPRPRPRPAYPPRP, the “shrunken log2 fold change” value is reported as 0.0273.
With RRIRTRPPRLPRPRPRPWYIPRP the “shrunken log2 fold change” value was -0.146.
With RRIRCRPPRLPRPRPRPICHPRP the “shrunken log2 fold change” value was 1.48.
In the case of RRIRARPPRLPRPRPRPWAAPRP, the “shrunken log2 fold change” value is reported as 0.239.
RRIRHRPPRLPRPRPRPNDHPRP was tested, and the “shrunken log2 fold change” value was -0.499.
For RRIRLRPPRLPRPRPRPVVWPRP, the “shrunken log2 fold change” value was 0.547.
With RRIRPRPPRLPRPRPRPRKGPRP the “shrunken log2 fold change” value was 0.322.
RRIRTRPPRLPRPRPRPHFYPRP was tested, and the “shrunken log2 fold change” value was -0.224.
For RRIRMRPPRLPRPRPRPLTQPRP, the “shrunken log2 fold change” value was 0.175.
For RRIRMRPPRLPRPRPRPRFRPRP, the “shrunken log2 fold change” value was 0.784.
In the case of RRIRDRPPRLPRPRPRPCKVPRP, the “shrunken log2 fold change” value is reported as -0.202.
With RRIRERPPRLPRPRPRPFRQPRP the “shrunken log2 fold change” value was 0.198.
In the case of RRIRDRPPRLPRPRPRPMNMPRP, the “shrunken log2 fold change” value is reported as -0.308.
In the case of RRIRNRPPRLPRPRPRPHYAPRP, the “shrunken log2 fold change” value is reported as -0.0337.
With RRIRSRPPRLPRPRPRPEALPRP the “shrunken log2 fold change” value was -0.0643.
RRIRARPPRLPRPRPRPFCEPRP was tested, and the “shrunken log2 fold change” value was 0.303.
With RRIRIRPPRLPRPRPRPHRKPRP the “shrunken log2 fold change” value was -0.551.
RRIRKRPPRLPRPRPRPYDTPRP was tested, and the “shrunken log2 fold change” value was -0.246.
RRIRARPPRLPRPRPRPSPNPRP was tested, and the “shrunken log2 fold change” value was 0.0681.
In the case of RRIRFRPPRLPRPRPRPVMCPRP, the “shrunken log2 fold change” value is reported as -0.263.
In the case of RRIRPRPPRLPRPRPRPFNSPRP, the “shrunken log2 fold change” value is reported as -0.764.
For RRIRSRPPRLPRPRPRPIGGPRP, the “shrunken log2 fold change” value was -0.0412.
In the case of RRIRQRPPRLPRPRPRPKRGPRP, the “shrunken log2 fold change” value is reported as 0.38.
RRIRMRPPRLPRPRPRPWNMPRP was tested, and the “shrunken log2 fold change” value was -0.0747.
In the case of RRIRKRPPRLPRPRPRPPMRPRP, the “shrunken log2 fold change” value is reported as 0.918.
For RRIRFRPPRLPRPRPRPWTCPRP, the “shrunken log2 fold change” value was -0.126.
In the case of RRIRYRPPRLPRPRPRPFWWPRP, the “shrunken log2 fold change” value is reported as -0.102.
In the case of RRIRPRPPRLPRPRPRPNHRPRP, the “shrunken log2 fold change” value is reported as -0.11.
In the case of RRIRERPPRLPRPRPRPRYFPRP, the “shrunken log2 fold change” value is reported as -0.54.
RRIRHRPPRLPRPRPRPFVIPRP was tested, and the “shrunken log2 fold change” value was -0.331.
RRIRARPPRLPRPRPRPVPGPRP was tested, and the “shrunken log2 fold change” value was 0.672.
In the case of RRIRERPPRLPRPRPRPKMVPRP, the “shrunken log2 fold change” value is reported as -0.22.
For RRIRQRPPRLPRPRPRPDFMPRP, the “shrunken log2 fold change” value was -0.316.
With RRIRDRPPRLPRPRPRPPSPPRP the “shrunken log2 fold change” value was 0.494.
With RRIRERPPRLPRPRPRPHRCPRP the “shrunken log2 fold change” value was -0.0136.
With RRIRTRPPRLPRPRPRPFSEPRP the “shrunken log2 fold change” value was -0.0338.
In the case of RRIRRRPPRLPRPRPRPFVAPRP, the “shrunken log2 fold change” value is reported as 0.354.
In the case of RRIRWRPPRLPRPRPRPCGTPRP, the “shrunken log2 fold change” value is reported as 0.481.
With RRIRNRPPRLPRPRPRPDFCPRP the “shrunken log2 fold change” value was 0.0953.
RRIRGRPPRLPRPRPRPIPKPRP was tested, and the “shrunken log2 fold change” value was -0.117.
With RRIRKRPPRLPRPRPRPIIVPRP the “shrunken log2 fold change” value was 0.0373.
RRIRVRPPRLPRPRPRPLRTPRP was tested, and the “shrunken log2 fold change” value was 0.246.
For RRIRSRPPRLPRPRPRPLLMPRP, the “shrunken log2 fold change” value was 0.128.
RRIRLRPPRLPRPRPRPYSQPRP was tested, and the “shrunken log2 fold change” value was -0.0787.
RRIRHRPPRLPRPRPRPHHIPRP was tested, and the “shrunken log2 fold change” value was -1.53.
RRIRDRPPRLPRPRPRPLGHPRP was tested, and the “shrunken log2 fold change” value was 0.0421.
In the case of RRIRTRPPRLPRPRPRPPGPPRP, the “shrunken log2 fold change” value is reported as 0.53.
In the case of RRIRIRPPRLPRPRPRPSRPPRP, the “shrunken log2 fold change” value is reported as -0.00676.
For RRIRCRPPRLPRPRPRPEKEPRP, the “shrunken log2 fold change” value was -0.0494.
For RRIRMRPPRLPRPRPRPIMKPRP, the “shrunken log2 fold change” value was -0.24.
In the case of RRIRIRPPRLPRPRPRPGAAPRP, the “shrunken log2 fold change” value is reported as 0.18.
In the case of RRIRTRPPRLPRPRPRPERIPRP, the “shrunken log2 fold change” value is reported as -0.18.
For RRIRPRPPRLPRPRPRPGWSPRP, the “shrunken log2 fold change” value was 0.0867.
With RRIRYRPPRLPRPRPRPRLTPRP the “shrunken log2 fold change” value was -0.0803.
RRIRLRPPRLPRPRPRPNFCPRP was tested, and the “shrunken log2 fold change” value was 0.101.
RRIRLRPPRLPRPRPRPGIYPRP was tested, and the “shrunken log2 fold change” value was -0.318.
With RRIRSRPPRLPRPRPRPTCTPRP the “shrunken log2 fold change” value was 0.342.
With RRIRRRPPRLPRPRPRPAPEPRP the “shrunken log2 fold change” value was 2.07.
RRIRIRPPRLPRPRPRPIKPPRP was tested, and the “shrunken log2 fold change” value was -0.254.
In the case of RRIRQRPPRLPRPRPRPADCPRP, the “shrunken log2 fold change” value is reported as -0.00699.
For RRIRVRPPRLPRPRPRPNTIPRP, the “shrunken log2 fold change” value was -0.571.
For RRIRSRPPRLPRPRPRPLGVPRP, the “shrunken log2 fold change” value was 0.0588.
For RRIRDRPPRLPRPRPRPFLQPRP, the “shrunken log2 fold change” value was -0.091.
In the case of RRIRARPPRLPRPRPRPVCPPRP, the “shrunken log2 fold change” value is reported as 0.139.
For RRIRMRPPRLPRPRPRPSKSPRP, the “shrunken log2 fold change” value was 0.166.
For RRIRPRPPRLPRPRPRPAHHPRP, the “shrunken log2 fold change” value was 0.207.
For RRIRVRPPRLPRPRPRPTKWPRP, the “shrunken log2 fold change” value was 0.0808.
RRIRSRPPRLPRPRPRPVGHPRP was tested, and the “shrunken log2 fold change” value was -0.376.
RRIRERPPRLPRPRPRPWIVPRP was tested, and the “shrunken log2 fold change” value was -0.00567.
RRIRERPPRLPRPRPRPVMEPRP was tested, and the “shrunken log2 fold change” value was -0.0566.
RRIRFRPPRLPRPRPRPEAMPRP was tested, and the “shrunken log2 fold change” value was -0.000462.
With RRIRHRPPRLPRPRPRPPGEPRP the “shrunken log2 fold change” value was 0.418.
In the case of RRIRDRPPRLPRPRPRPLQCPRP, the “shrunken log2 fold change” value is reported as 0.0793.
With RRIRCRPPRLPRPRPRPFCSPRP the “shrunken log2 fold change” value was -0.008.
For RRIRPRPPRLPRPRPRPQSIPRP, the “shrunken log2 fold change” value was -0.105.
RRIRMRPPRLPRPRPRPQVWPRP was tested, and the “shrunken log2 fold change” value was 0.399.
RRIRHRPPRLPRPRPRPLIPPRP was tested, and the “shrunken log2 fold change” value was -0.244.
For RRIRSRPPRLPRPRPRPYALPRP, the “shrunken log2 fold change” value was -0.613.
RRIRIRPPRLPRPRPRPLLQPRP was tested, and the “shrunken log2 fold change” value was -0.163.
For RRIRDRPPRLPRPRPRPADNPRP, the “shrunken log2 fold change” value was -0.0897.
With RRIRLRPPRLPRPRPRPTHGPRP the “shrunken log2 fold change” value was 0.213.
For RRIRSRPPRLPRPRPRPSDLPRP, the “shrunken log2 fold change” value was -0.254.
In the case of RRIRVRPPRLPRPRPRPERPPRP, the “shrunken log2 fold change” value is reported as 0.0183.
In the case of RRIRTRPPRLPRPRPRPMASPRP, the “shrunken log2 fold change” value is reported as 0.0589.
